According to the DeepSol protein solubility set:

assay: soluble on expression in E. coli; label from the status in PepcDB or PDB records

| Sequence | soluble on expression in E. coli |
| --- | --- |
| MGLELEWMPIEDLKLPSNVIEIIKKRGIKKLNPPQTEAVKKGLLEGNRLLLTSPTGSGKTLIAEMGIISFLLKNGGKAIYVTPLRALTNEKYLTFKDWELIGFKVAMTSGDYDTDDAWLKNYDIIITTYEKLDSLWRHRPEWLNEVNYFVLDELHYLNDPERGPVVESVTIRAKRRNLLALSATISNYKQIAKWLGAEPVATNWRPVPLIEGVIYPERKKKEYNVIFKDNTTKKVHGDDAIIAYTLDSLSKNGQVLVFRNSRKMAESTALKIANYMNFVSLDENALSEILKQLDDIEEGGSDEKELLKSLISKGVAYHHAGLSKALRDLIEEGFRQRKIKVIVATPTLAAGVNLPARTVIIGDIYRFNKKIAGYYDEIPIMEYKQMSGRAGRPGFDQIGESIVVVRDKEDVDRVFKKYVLSDVEPIESKLGSERAFYTFLLGILSAEGNLSEKQLENFAYESLLAKQLVDVYFDRAIRWLLEHSFIKEEGNTFALTNFGKRVADLYINPFTADIIRKGLEGHKASCELAYLHLLAFTPDGPLVSVGRNEEEELIELLEDLDCELLIEEPYEEDEYSLYINALKVALIMKDWMDEVDEDTILSKYNIGSGDLRNMVETMDWLTYSAYHLSRELKLNEHADKLRILNLRVRDGIKEELLELVQISGVGRKRARLLYNNGIKELGDVVMNPDKVKNLLGQKLGEKVVQEAARLLNRFH | soluble |
| NTDKHIYLEEHISPESQPMLSTYFRSMGKPRSIKENVLTVPQDASPETLALYYFARIYLERYEGVPLPDDMPDLIEFGRKHNMPWVVAEAKLNKAIRMIELDDDWHAELLLHDVIGESRDIGYLALQGRAYRWMGNLEIARNQIHNGLKHYRTAYELLENTVFEIQVAMTLNNIGTVYLDSSDWNRASNYLKQALDVYESSEYEYDNS | not soluble |
| MQLQPFSQACENNKVPILAVLKSAFANTTRVLEIGSGTGQHAVYFATNLPQLFWQTSDQAEYLEGIKARCLLQGHQLGINNLGFPITLDVTAPWPVNGTHIDAVFSANTLHIMSKSMVEAFFNGLGEYLPQLNTLCIYGPFNYQGHYTSDSNRQFDHFLKQRDSESGIRDIEWIIALAQAQGLTLVEDIAMPTNNRLLHFKHLLALEHHHHHH | not soluble |
| MGSDKIHHHHHHMRQFAKPTIVVSKCLEFDACRYNGEMIPDVTIRNLQPFVTFIPVCPEVEIGLGTPRETIRIVEEKGVNKLMQPSTREDLTGKMEQFSNKFLQTISDVDGFILKNRSPSCGTRDVKIYSGFEKAPAKGKGPGLFGGAVIKNFSHLPIEEEGRLSNFIIREHFLTRLFTIAYYKMMKRNKNMKDLVSFQSDNKYLFMAYNQVKQKELGRIIANHKNEKIEVVFENYEKTLYELFMRTPRYTSNVNVCEHIFGYFKTKLKKQEKDHFLDLIQKYKEKKIPLSSLLAILKSWALRFDEKYLLRQTYFEPYPEALVEISDSGKGRDY | not soluble |
| GPMRRERGRQGDSSSCERQVDRVNLKPCEQHIMQRIMGEQEQYDSYDIRSTRSSDQQQRCCDELNEMENTQGCMCEALQQIMENQCDRLQDRQMVQQFKRELMSLPQQCNFRAPQRCDLDVSGGRCS | soluble |
| MLRFDHLVHAVHGTPEEAAKQMQELGFHTVLGGEHTNWGTWNSLSYFDLSYIEFLAVQYEEKAKEAENPLVQETVVKLQNGEGMLQIAIRTDAIEELAVNFNKYGLHTIGPFEGKRMRKDGRLLEWKMLFVKQEENGPKLPFFIQWNETDEERRNDLRNSGTITEHKNKVQQIETIHYAVKNVRETVRKWKEVMELSTSSVVKIEKWNAECQSVVFGDIHVQFCEPIGEGLVLEHLNKNGENPFAVEFKGGNKREHEVLGSLYIY | not soluble |
| MAHHHHHHMTLETTPAPTFSSKKELYDWLVKQVEALVHDMSKRFTPQANLVIGLSNTAALCFYELNRFCNPEAALEKLRVNWFGFYLFQAPGLLALGPFQGRPACTEIRVGKGVCGTVAESGESMVVQSVHEFPGHIACDSASKSEIAVPVLIENGSVVAVIDVDSTELGHFSEEDREGLERMAAVLAQHLDFPMARALAVNPALGLPGYSALAGGEKALQPHGDAEAVPQATPVTTTTTTPATVTAVTRIPFFKVEVKQPDVTTKCVGGWQFTRTNLDRIMTQDETKQLQDSLGISALPEIAFQGKTLSVSPESDREHPWLHFSVEALMCSAAEYYQTEEFKTLVNPQLRIPVSAGWESFHFEKYDPKVDWAWRNNFCGLVPDRGRLVERPRDAADAPGINWDILKDTSLLILFYGDFDMMEDDLRDHGMVTSSVKYRVMSSAFFVLFRHFVRVDNHEIWMREVRVFHEFGKTRTPSGVPHIVFLEQLRHVRIAEPVEGVDWKSMSPDAISAKATVLLSREWMLEKVATA | not soluble |
| MSLGMASHPPIPILELADHIERLKANDNLKFSQEYESIDPGQQFTWEHSNLEVNKPKNRYANVIAYDHSRVLLSAIEGIPGSDYVNANYIDGYRKQNAYIATQGSLPETFGDFWRMIWEQRSATVVMMTKLEERSRVKCDQYWPSRGTETHGLVQVTLLDTVELATYCVRTFALYKNGSSEKREVRQFQFTAWPDHGVPEHPTPFLAFLRRVKTCNPPDAGPMVVHCSAGVGRTGCFIVIDAMLERIKHEKTVDIYGHVTLMRAQRNYMVQTEDQYIFIHDALLEAVTCGNTEVPARNLYAYIQKLTQIETGENVTGMELEFKRLEGHHHHHH | soluble |
| MIELIDPISKQRLEESPEGLRNENGIVVYPLINGAYRVAASDNYTSNFGLEWNTFQKTQIDKFSGNTVSEERLFAQTNWQKNGLEGETILEVGSGAGRFSQIMLDHTKATLYSVDYSEAVEANYRNNGPHERFKLFQASIYELPFKQASFDRVICLGVLQHTPDFKASVKALVEMVKPGGELVIDFYPIRNVFTKVHGKYLLRPILKRVNHHRLMSLIRNNIDFLISIYTFNRRIGLGVFNRFVPICEIERTLPKGMTPEQLKEWIILDTFDMFSPEYDQPQRLSTVAKWVKEFGMADVDASWVTYHGKLEAPTVRGRKVLEHHHHHH | soluble |
| MHNIYFYKDKNGNEPVFDYMRELTSKKGKDSRIKLNKINDYIELLSQHGTRAGEPYIKHLDAEIWELRPLRDRILFVAWMDGSFVLLHHFMKRTQKTPKREIEQAKRELADLKERGLDNEK | not soluble |
| MVNSKVLNTLEYQQVKQQLAPYLVSATGQQALNELHPMTSVADIQRALDETNDGAEVYRLKGGIPVARLADIKPHMKRLAIGATLNGSELGQVGRVLRTTRAITRFFAELLEDAPELEHHHHHH | not soluble |
| MSLRPQFEREQWLNLNGTWTFDFDFGKSGKDRRLQSAEKFDKNITVPFCPESKLSGVGYTDFIEQMWYQRNITIPSDWNGKKIFLNFGAVDYCAEIYVDGKFVQRHFGGSSSFAVDLTRYVTPGKTHNLVVFVQDDLRSGLQTGGKQCGNYYSGGCSYTRTTGIWQTVWMEAVSTDGLKSVFVRPDIDQKQLIIEPEFYNESANTLEIILKDGNKTVAKKSVNCANSSVVVLPVKNMKLWSPEDPFLYDLVYQVKDAKGNVLDEVKSYAGMRKVHTANGRFYLNNQPYFQRLVLDQGFYPEGIWTAPSDEDLKNDIVLGKEAGFNGARLHQKVFEERYYYWADKLGYITWGESASWMLDVNKELAARNFLGEWSEVVVRDRNHPSLVTWTPFNETWGGGPDAYVRLVRDVYNITKAIDPTRPVNDASGDNHVITDIWSVHNYEQDRAKLTEQLKMEEGKEPYRNARDKDFLAVYEGQPYMVDEFGGIPWMAEKDRKNSWGYGGMPENAEAFYKRLEGQIDAFIDSPHVTGFCYTQLTDVEQEKNGIYYYDRTPKLDMKRIKAIFEKIKEGHHHHHH | soluble |
| HMTMEQFLTSLDMIRSGCAPKFKLKTEDLDRLRVGDFNFPPSQDLMCYTKCVALMAGTVNKKGEFNAPKALAQLPHLVPPEMMEMSRKSVEACRDTHKQFKESCERVYQTAKCFSENADGQFMWP | soluble |
| MIPKKSSFIVTYAFRIKPTSPQDSGSNRMIIVITPTYKRITRLADITRLANTLSQVENLHWIVIEDGESTIPNVQNILERSELLYTYVAHRTASGYPARGWYQRDMALKLIRTNPSQILGEHEGEAVIYFADDDNSYDLRLFEDYIRNVKKLGLWAVGLAGGAAVEAPNVVNKKVTSFNFKWKSKRRFAVDMAGFAINLDYILNSSAVFGTECKRGDGAPETCLLEDLGFDLNDIEPFGYEKEASEIYSSLYSMVFYLQKNNEILVWHTKTSYSGMKVKEAEKFGYFVEP | not soluble |
| MDSQKFIDLCKKHVVDFANSQLDYTDQKKISESDIYVVWLAKTLQNNKALLSTNLFDGMYYEVTFNGDKNELYFDAYKKWRNIRFDVTEGGDQNG | not soluble |
| MDSLEKIKEEVISCKKCKLWQFRTNAVPGEGYPKAEIMFVGEAPGENEDKEGRPFVGAAGKLLTQMIKEILGLERDQVFITNVVKCRPPNNRDPEEDEITACSPYLDRQIDIIMPKIIVTLGRHSTKYIFSKMGENFSSITKVRGKSYVWKYKEKEIIVFPTYHPAAALYNPNLRKILEEDFKKIRELAITPKRYTIDYFLGGKNRSWDKREKSDSNSGK | soluble |
| MMSSNQQPVVLGKLGSCHGIKGWLKITAYTDSVEGIFDYSPWLIKENGEWREVKVIQWRYQGKAVVAELEGVTTRERAQMLTNCEIGILPQQMNALPEDEFYWRDLIGCEVINTTGYNMGIVDQIVETGSNDVLLVKANAKDSFGKVERMVPFVPGQFILKVDVQGKQILVDWDPDFLEHHHHHH | soluble |
| MSLTNITQCKNRRCGGELGDFTGYIESPNYPGNYPANTECTWTINPPPKRRILIVVPEIFLPIEDDCGDYLVMRKTSSSNSVTTYETCQTYERPIAFTSRSKKLWIQFKSNEGNSARGFQVPYVTYDEDYQELIEDIVRDGRLYASENHQEILKDKKLIKALFDVLAHPQNYFKYTAQESREMFPRSFIRLLRSKVSRFLRPYKEGHHHHHH | not soluble |
| MGSDKIHHHHHHMNKKILIIDDNKMLGKLLAKKIQMTLDYEVDIAFGFAEAKELMNNDYFLAFVDLCLPDAPNGEVVDYVIEKKIPAIVLTASGDKATKEKFMDKDILDYIFKESETCIDEIISSIVKLNQYAKTKVIVAMSKLPERNEIKKILTQRQFNVLAAAHGEEAMSYLNDNNDVKLIIADVNMPVISGFELLTQVRERFSDDELGVILLGDHNDSFEANSFKNGVNEYLFKPLSKESFNCRLDRCLSYMDDKKFLSTYNVLDPVSGVKNYNALIDGIDDYFNEIATKDEEFAFAFLDIDNLQMINDEYGREVGDEVIKICANEIVNETKGRDLVGRYSAEKICILLKNISQERAIKIFSRIRVNIKKAGVLVNLDEVFFTASIGVVFGKSGDKIDSLADKASKILSQAKDNGKDRVEVCS | not soluble |
| MSLRQAHFLKGKDAMNNPSVIPAFDFREMVTTLDNKIITTSLKVADYFGKRHKDVLRAIRNLKCSDDFTQRNFAPIDFIDKNGDVQPMYNITRDGCMMLVMGFTGKTAAAVKECYINAFNWMAEQLNRRMAMGEEGHHHHHH | soluble |
| MSSARLVIAGLNGGTGKTILSLGTVRALTNAGHSVKPFKKGPDYIDAEWLGLAAGRAATNLDPFFLDAARLQSLFLHASAGASISIIEGNRGLYDGRDVTGSCSTAELARILDSPVVLAMDCTKMTRTAAAILSGVAAFEPGVKLAGVVLNRTANERHRSMLRQCIEHYTDIPVLGALPRLRDNPIPERHMGLVSDREFAQCAGELDRVAQFVAQHVDVERMAEIARSAQPLASNEPFWPVVAEGDGVRPRIGYVRDAALWFYYEENLEALRQAGADLVELRIIDGDPWPTLDGLYLGGGFPETLASELSACRERLAGIREAALAGLPVYAECGGFMVLGESIVMDGVEYPMSGVFPVQTVFHPKPQGLGYVEAEVVAENPFFPQGMVFRGHEFHYSACRPRDGGAVTHALRLNPGTGMGGGADGLVQANTFAAYTHIFGPAVQGWAERFVRAARGHRDQLNKGTDLSLEHHHHHH | not soluble |
| ENENRVEALEVRLAFQDELLDALNATVARQQKEIDLLQQQIRLLYQQFRNAQPDDAPGGSLRDDIPPHY | soluble |
